Reference: US20060051835A1 (published 2006)

B1: Myc-E2-25K (enzyme, human, UniProt P61086 2-200, looked up)
chain: ANIAVQRIKREFKEVLKSEETSKNQIKVDLVDENFTELRGEIAGPPDTPYEGGRYQLEIKIPETYPFNPPKVRFITKIWHPNISSVTGAICLDILKDQWAAAMTLRTVLLSLQALLAAAEPDDPQDAVVANQYKQNPEMFKQTARLWAHVYAGAPVSSPEYTKKIENLCAMGFDRNAVIVALSSKSWDVETATELLLSN
notes: whole, on cells; not shown: Myc tag
B2: Myc-UBCH6 (enzyme, UniProt P51965 2-193, looked up)
chain: SDDDSRASTSSSSSSSSNQQTEKETNTPKKKESKVSMSKNSKLLSTSAKRIQKELADITLDPPPNCSAGPKGDNIYEWRSTILGPPGSVYEGGVFFLDITFTPEYPFKPPKVTFRTRIYHCNINSQGVICLDILKDNWSPALTISKVLLSICSLLTDCNPADPLVGSIATQYMTNRAEHDRMARQWTKRYAT
notes: as for B1

Molecular target: T1, FLAG-tagged Parkin (Wild type) (human, UniProt O60260 1-465)
T1 construct: whole, on cells; Plasmid described in Imai et al. 2000; also called FLAG-Parkin; the full-length Parkin; not shown: FLAG tag
T1 sequence (O60260 whole entry): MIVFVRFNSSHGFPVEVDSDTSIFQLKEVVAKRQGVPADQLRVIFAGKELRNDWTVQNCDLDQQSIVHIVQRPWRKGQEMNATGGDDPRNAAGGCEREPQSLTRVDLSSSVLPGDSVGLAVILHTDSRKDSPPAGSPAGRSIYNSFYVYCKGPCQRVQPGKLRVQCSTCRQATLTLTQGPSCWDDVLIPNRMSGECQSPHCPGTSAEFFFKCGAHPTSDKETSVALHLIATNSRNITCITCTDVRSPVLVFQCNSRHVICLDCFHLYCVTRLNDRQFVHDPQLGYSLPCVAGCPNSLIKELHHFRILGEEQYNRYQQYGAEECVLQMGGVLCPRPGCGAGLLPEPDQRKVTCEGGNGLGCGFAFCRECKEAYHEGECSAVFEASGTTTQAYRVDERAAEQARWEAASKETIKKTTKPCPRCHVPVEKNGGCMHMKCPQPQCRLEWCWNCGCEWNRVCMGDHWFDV
Assay: co-immunoprecipitation from 293T cells (FLAG-IP, anti-Myc Western blot)
Source text: We have previously reported that the expression of Parkin is increased due to the stress induced by misfolded proteins, so as to have an effect of suppressing cell death resulting from the stress induced by misfolded proteins (Imai, Y. et al. (2000) J Biol Chem 275, 35661-35664). Against endoplasmic reticulum stress, a series of unfolded protein responses (UPR) including endoplasmic reticulum (ER)-associated degradation (ERAD), which regulate gene expression, are induced (Travers, K. J. et al., (2000) Cell 101, 249-258). ERAD degrades misfolded membrane proteins or secretory proteins with the degradation system within the cytoplasm (Plemper, R. K. et al., (1999) Trends Biochem Sci 24, 266-270). ERAD substrate was transported back through the membrane of the endoplasmic reticulum to the cytoplasm, in which it is ubiquitinated and degraded by the action of UBC6, UBC7, proteasome complex and the like (Biederer, T. et al., (1997) Science 278, 1806-1809; Bordallo, J. et al., (1998) Mol Biol Cell 9, 209-222; Gilon, T. et al., (2000) Mol Cell Biol 20, 7214-7219; Wilhovsky, S. et al., (2000) Mol Biol Cell 11, 1697-1708). […] Immunoprecipitates (FLAG-IP) immunoprecipitated with anti-FLAG monoclonal antibodies and soluble total cell extract (Total lysate) were analyzed by Western blotting (WB) using anti-FLAG or anti-Myc antibodies.

Row | Binder | binding result
1 | B1 | no binding
2 | B2 | no binding
